Data from patent US11015206B2, “Compositions and methods comprising sequences having hydroxyphenylpyruvate dioxygenase (HPPD) activity” (PIONEER HI-BRED INTERNATIONAL, INC., priority 2014, dated 2021).

How the values were obtained:
Assay type in all cases: biochemical, Z. mays
[1] = tested on: 4-hydroxyphenylpyruvate dioxygenase (HPPD); experiment: HPPD activity coupled assay with HGD; substrate saturation kinetic parameters (kcat, KM); details: Table 6; for kcat: single substitutions in SEQ ID NO:2
In short: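 Coupled continuous assay: His-tagged HPPD (5 to 240 nM, E. coli-expressed, Ni-NTA-purified) with 50 nM P. aeruginosa HGD in 25 mM Hepes pH 7, 2 mM ascorbate, 10 μM FeSO4; maleylacetoacetate followed at 320 nm. KM and Vmax from Lineweaver-Burke fits over 3.33–100 μM HPP.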

[2] = tested on: 4-hydroxyphenylpyruvate dioxygenase (HPPD); experiment: ON rate ratio: HPPD reaction rate with vs without inhibitor in the 70 to 90 second interval; details: Table 5; tembotrione
In short: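 Time courses of HPPD reactions, 60 or 120 nM enzyme with 100 μM HPP substrate, run with and without 4 μM inhibitor (e.g. mesotrione, tembotrione). Value is the rate with inhibitor over rate without, taken over 70–90 s; higher ratio reflects slower kON.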

[3] = tested on: 4-hydroxyphenylpyruvate dioxygenase (HPPD); experiment: OFF rate ratio: release of inhibitor from pre-formed enzyme-inhibitor complex; details: Table 5; tembotrione
In short: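 HPPD (7.2 μM) pre-incubated 1 h at RT with inhibitor (8 μM), then diluted into 25 mM Hepes pH 7, 2 mM ascorbate, 10 μM FeSO4, 100 μM HPP, 50 nM HGD; A320 followed 12 min. Ratio = steady-state rate with inhibitor over initial rate of inhibitor-free enzyme.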

[4] = tested on: 4-hydroxyphenylpyruvate dioxygenase (HPPD); experiment: Insensitivity parameter (ON × OFF) and trait fitness (ON × OFF × kcat/KM or × kcat); details: for ON × OFF × kcat, Value / ON × OFF × kcat, Fold vs wt / ON × OFF, fold vs wt / ON × OFF (parameters with tembotrione): Table 5, tembotrione; for ON × OFF × kcat, Fold vs wt / ON × OFF, fold vs wt: fold vs maize wild type HPPD; for ON × OFF (parameters with tembotrione): insensitivity parameter
In short: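 Calculated, not measured directly: ON rate ratio × OFF rate ratio gives an insensitivity parameter serving as a KD surrogate.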

[5] = tested on: 4-hydroxyphenylpyruvate dioxygenase (HPPD); experiment: Estimate of kcat from initial rate at saturating hydroxyphenylpyruvate without inhibitor (ON rate ratio assay); details: Table 5; single substitutions in Round 7 variant 9070 (SEQ ID NO:2); estimate from initial rate at saturating hydroxyphenylpyruvate without inhibitor
In short: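 Reactions used 60 or 120 nM HPPD and saturating 100 μM hydroxyphenylpyruvate without inhibitor. kcat was estimated from the initial rate at the known enzyme concentration.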

[6] = DKN (diketonitrile form of isoxaflutole)
[7] = DKN (isoxaflutole diketonitrile)

ON ratio (parameters with tembotrione) [2] | OFF ratio (parameters with tembotrione) [3] | Insensitivity parameter, ON × OFF [4, 6] | Insensitivity parameter, ON × OFF ([4]; Mesotrione, Table 6) | Insensitivity parameter, ON × OFF ([4]; Sulcotrione) | ON × OFF, fold vs wt [4] | ON × OFF (parameters with tembotrione) [4] | Insensitivity parameter, ON × OFF ([4]; Tembotrione) | Insensitivity parameter, ON × OFF ([4]; Topramezon) | Molecule | Km [1] | kcat [1] | ON × OFF × kcat/km fold vs Round 7, variant 9070 [4, 7] | ON × OFF × kcat/km fold vs Round 7, variant 9070 ([4]; Sulco (sulcotrione)) | ON × OFF × kcat, Value [4] | ON × OFF × kcat, Fold vs wt [4] | ON × OFF × kcat/km fold vs Round 7, variant 9070 ([4]; Topra (topramezone)) | ON × OFF × kcat/km fold vs Round 7, variant 9070 ([4]; meso (mesotrione)) | ON × OFF × kcat/km fold vs Round 7, variant 9070 ([4]; tembo (tembotrione)) | kcat [5]
0.78 | 0.13 | 0.21 | 0.46 | 0.55 | 19.5 | 0.10 | 0.15 | 0.22 | 434H: single substitution Q434H in SEQ ID NO:2 (protein, Zea mays variant form created by artificial means.) MGPTPTATAAGAAVAAASAAEQAAFRLVGHRNFVRFNPRSDRFQTLAFHHVELWCADAASAAGRFSFALGVPLAARSDLSTGNSAHASLLLRSGSLSLLFTAPYAHGADAATAALPSFSAAAARRFAADHGLAVRAVALRVADAEDAFRASVAAGARPAFGPVDLGRGFRLAEVELYGDVVLRYVSYPDGAAGEPFLPGFEGVASPGAADYGLSRFDHIVGNVPELAPAAAYMAGFTGFHEFAEFTTEDVGTTESGLNSMALANNSENVLLPLNEPVHGTKRRSQIQTFLDHHGGPGVQHIALASDDVLRTLREMRARSAMGGFEFLPPPLSDYYDGVRRCAGDVLTEAQINECQELGVMVDRDDQGVLLQIFTKPVGDRPTFFLEIIQRIGCMEKDEKGQEYQKGGCGGFGKGNFGQLFKSIEDYEKSLEAKHAAAAATAQGS | 2.77 µM | 1.41 s⁻¹ | 1.4 | 1.3 | 5.16 | 4.82 | 1.1 | 1.3 | 1.1 | 0.865 s⁻¹
0.79 | 0.28 | 0.30 | 0.44 | 0.60 | 42.5 | 0.22 | 0.23 | 0.29 | 182M: single substitution L182M in SEQ ID NO:2 (protein, Zea mays variant form created by artificial means.) MGPTPTATAAGAAVAAASAAEQAAFRLVGHRNFVRFNPRSDRFQTLAFHHVELWCADAASAAGRFSFALGVPLAARSDLSTGNSAHASLLLRSGSLSLLFTAPYAHGADAATAALPSFSAAAARRFAADHGLAVRAVALRVADAEDAFRASVAAGARPAFGPVDLGRGFRLAEVELYGDVVMRYVSYPDGAAGEPFLPGFEGVASPGAADYGLSRFDHIVGNVPELAPAAAYMAGFTGFHEFAEFTTEDVGTTESGLNSMALANNSENVLLPLNEPVHGTKRRSQIQTFLDHHGGPGVQHIALASDDVLRTLREMRARSAMGGFEFLPPPLSDYYDGVRRCAGDVLTEAQINECQELGVMVDRDDQGVLLQIFTKPVGDRPTFFLEIIQRIGCMEKDEKGQEYQKGGCGGFGKGNFGQLFKSIEDYEKSLEAKQAAAAATAQGS | 2.88 µM | 0.935 s⁻¹ | 0.9 | 0.9 | 5.63 | 5.26 | 0.9 | 0.8 | 1.0 | 0.433 s⁻¹
0.77 | 0.13 | 0.25 | 0.40 | 0.51 | 20.1 | 0.10 | 0.19 | 0.24 | 191G: single substitution A191G in SEQ ID NO:2 (protein, Zea mays variant form created by artificial means.) MGPTPTATAAGAAVAAASAAEQAAFRLVGHRNFVRFNPRSDRFQTLAFHHVELWCADAASAAGRFSFALGVPLAARSDLSTGNSAHASLLLRSGSLSLLFTAPYAHGADAATAALPSFSAAAARRFAADHGLAVRAVALRVADAEDAFRASVAAGARPAFGPVDLGRGFRLAEVELYGDVVLRYVSYPDGGAGEPFLPGFEGVASPGAADYGLSRFDHIVGNVPELAPAAAYMAGFTGFHEFAEFTTEDVGTTESGLNSMALANNSENVLLPLNEPVHGTKRRSQIQTFLDHHGGPGVQHIALASDDVLRTLREMRARSAMGGFEFLPPPLSDYYDGVRRCAGDVLTEAQINECQELGVMVDRDDQGVLLQIFTKPVGDRPTFFLEIIQRIGCMEKDEKGQEYQKGGCGGFGKGNFGQLFKSIEDYEKSLEAKQAAAAATAQGS | 2.46 µM | 1.2 s⁻¹ | 1.1 | 1.1 | 4.36 | 4.08 | 1.1 | 1.1 | 1.0 | 0.71 s⁻¹
0.82 | 0.28 | 0.41 | 0.67 | 0.77 | 45.2 | 0.23 | 0.33 | 0.41 | 417S: single substitution G417S in SEQ ID NO:2 (protein, Zea mays variant form created by artificial means.) MGPTPTATAAGAAVAAASAAEQAAFRLVGHRNFVRFNPRSDRFQTLAFHHVELWCADAASAAGRFSFALGVPLAARSDLSTGNSAHASLLLRSGSLSLLFTAPYAHGADAATAALPSFSAAAARRFAADHGLAVRAVALRVADAEDAFRASVAAGARPAFGPVDLGRGFRLAEVELYGDVVLRYVSYPDGAAGEPFLPGFEGVASPGAADYGLSRFDHIVGNVPELAPAAAYMAGFTGFHEFAEFTTEDVGTTESGLNSMALANNSENVLLPLNEPVHGTKRRSQIQTFLDHHGGPGVQHIALASDDVLRTLREMRARSAMGGFEFLPPPLSDYYDGVRRCAGDVLTEAQINECQELGVMVDRDDQGVLLQIFTKPVGDRPTFFLEIIQRIGCMEKDEKGQEYQKGGCGGFGKGNFSQLFKSIEDYEKSLEAKQAAAAATAQGS | 1.41 µM | 0.445 s⁻¹ | 0.9 | 1.1 | 4.26 | 3.98 | 1.2 | 1.3 | 1.6 | 0.308 s⁻¹
0.75 | 0.24 | 0.44 | 0.78 | 0.74 | 34.9 | 0.18 | 0.33 | 0.48 | 366E: single substitution Q366E in Round 7, variant 9070 (SEQ ID NO:2) (protein, Zea mays variant form created by artificial means.) MGPTPTATAAGAAVAAASAAEQAAFRLVGHRNFVRFNPRSDRFQTLAFHHVELWCADAASAAGRFSFALGVPLAARSDLSTGNSAHASLLLRSGSLSLLFTAPYAHGADAATAALPSFSAAAARRFAADHGLAVRAVALRVADAEDAFRASVAAGARPAFGPVDLGRGFRLAEVELYGDVVLRYVSYPDGAAGEPFLPGFEGVASPGAADYGLSRFDHIVGNVPELAPAAAYMAGFTGFHEFAEFTTEDVGTTESGLNSMALANNSENVLLPLNEPVHGTKRRSQIQTFLDHHGGPGVQHIALASDDVLRTLREMRARSAMGGFEFLPPPLSDYYDGVRRCAGDVLTEAQINECQELGVMVDRDDEGVLLQIFTKPVGDRPTFFLEIIQRIGCMEKDEKGQEYQKGGCGGFGKGNFGQLFKSIEDYEKSLEAKQAAAAATAQGS | 1.61 µM | 0.647 s⁻¹ | 1.7 | 1.4 | 3.58 | 3.35 | 1.9 | 1.8 | 1.8 | 0.335 s⁻¹
